Patent US9018171B2, “Uses of an immunomodulatory protein (GMI) from Ganoderma microsporum” (Mycomagic Biotechnology Co., Ltd., priority 2010, dated 2015)
Read-outs that look alike come from different tables or passages of the source.

Legend:
SK-MEL-5 = experiment: NCI60 in vitro screening, Melanoma; format: cell-based
CCRF-CEM = experiment: NCI60 in vitro screening, Leukemia; format: cell-based
SF-295 = experiment: NCI60 in vitro screening, CNS Cancer; format: cell-based
HOP-92 = format: cell-based; conditions: HOP-92, one dose
M14 = experiment: NCI60 in vitro screening, Melanoma; format: cell-based
DU-145 = experiment: NCI60 in vitro screening, Prostate Cancer; format: cell-based
A549/ATCC = format: cell-based
SF-268 = experiment: NCI60 in vitro screening, CNS Cancer; format: cell-based
NCI-H226 = format: cell-based
A549 cells = experiment: Wound-healing assay; format: cell-based, human; conditions: 24 h
Experimental: Wound-healing assay was carried out to evaluate the inhibitory effects of (A) GMI or (B) AG1478 on A549 cell migration. Confluent monolayers of A549 cells were scarred, and repair was monitored microscopically after 24 h of treatment with (A) GMI or (B) AG1478. The cells migrating into the wound area were counted on the basis of the dashed line as time zero. On wound-healing assay, the cancer cells were cultured onto 24-well plates and grown in medium containing 10% FBS to nearly confluent cell monolayer. A plastic pipette tip was used to draw a linear “wound” in the cell monolayer of each well. The monolayer was then washed twice with PBS to remove debris or detached cells, and GMI was added at different concentrations ([…]). PBS was added to the control well as the solvent control. After 24 h of incubation, the cells were washed twice with PBS, fixed with 95% alcohol, and stained with 10% Giemsa solution (Merck). The cells were photographed under a light microscope (magnification, ×200). The experiments were performed in triplicate. After incubation with 2-8 μg/ml of GMI for 24 h, the cells that migrated to the denuded zone were photographed.

RPMI-8226 = experiment: NCI60 in vitro screening, Leukemia; format: cell-based
SNB-75 = experiment: NCI60 in vitro screening, CNS Cancer; format: cell-based
HS 578T = experiment: NCI60 in vitro screening, Breast Cancer; format: cell-based
TK-10 = experiment: NCI60 in vitro screening, Renal Cancer; format: cell-based
OVCAR-5 = experiment: NCI60 in vitro screening, Ovarian Cancer; format: cell-based
PC-3 = experiment: NCI60 in vitro screening, Prostate Cancer; format: cell-based

B1: GMI: immunomodulatory protein from Ganoderma microsporum, amino acid sequence SEQ ID NO: 3, manufactured by Mycomagic Biotechnology Co., Ltd. (protein, listed as Ganoderma microsporum)
chain: MSDTALIFTLAWNVKQLAFDYTPNWGRGRPSSFIDTVTFPTVLTDKAYTYRVVVSGKDLGVRPSYAVESDGSQKINFLEYNSGYGIADTNTIQVYVIDPDTGNNFIVAQWN
- TGI (SK-MEL-5; SK-MEL-5): 4.26E1
- Percent Growth (SK-MEL-5; SK-MEL-5, Log10 Concentration 0.1): 103%
- Percent Growth (SK-MEL-5; SK-MEL-5, Log10 Concentration 1.1): 94%
- Percent Growth (SK-MEL-5; SK-MEL-5, Log10 Concentration 2.1): −83%
- Percent Growth (SK-MEL-5; SK-MEL-5, Log10 Concentration −0.9): 101%
- Percent Growth (SK-MEL-5; SK-MEL-5, Log10 Concentration −1.9): 101%
- Growth Percent (SK-MEL-5; SK-MEL-5, one dose): 83.26%
- GI50 (SK-MEL-5; SK-MEL-5, in µg/mL): 2.22E1
- LC50 (SK-MEL-5; SK-MEL-5, in µg/mL): 8.17E1
- TGI (CCRF-CEM): >1.25E2
- Percent Growth (CCRF-CEM; Log10 Concentration 0.1): 97%
- Percent Growth (CCRF-CEM; Log10 Concentration 1.1): 58%
- Percent Growth (CCRF-CEM; Log10 Concentration 2.1): 18%
- Percent Growth (CCRF-CEM; Log10 Concentration −0.9): 101%
- Percent Growth (CCRF-CEM; Log10 Concentration −1.9): 104%
- GI50 (CCRF-CEM; in µg/mL): 2.02E1
- TGI (SF-295; SF-295): >1.25E2
- Percent Growth (SF-295; SF-295, Log10 Concentration 0.1): 101%
- Percent Growth (SF-295; SF-295, Log10 Concentration 1.1): 93%
- Percent Growth (SF-295; SF-295, Log10 Concentration 2.1): 22%
- Percent Growth (SF-295; SF-295, Log10 Concentration −0.9): 100%
- Percent Growth (SF-295; SF-295, Log10 Concentration −1.9): 103%
- Growth Percent (SF-295; SF-295, one dose): 70.58%
- GI50 (SF-295; SF-295, in µg/mL): 5.07E1
- Growth Percent (HOP-92): 22.29%
- TGI (M14; M14): >1.25E2
- Percent Growth (M14; M14, Log10 Concentration 0.1): 106%
- Percent Growth (M14; M14, Log10 Concentration 1.1): 76%
- Percent Growth (M14; M14, Log10 Concentration 2.1): 1%
- Percent Growth (M14; M14, Log10 Concentration −0.9): 96%
- Percent Growth (M14; M14, Log10 Concentration −1.9): 98%
- Growth Percent (M14; M14, one dose): 94.87%
- GI50 (M14; M14, in µg/mL): 2.78E1
- TGI (DU-145; DU-145): >1.25E2
- Percent Growth (DU-145; DU-145, Log10 Concentration 0.1): 109%
- Percent Growth (DU-145; DU-145, Log10 Concentration 1.1): 71%
- Percent Growth (DU-145; DU-145, Log10 Concentration 2.1): 9%
- Percent Growth (DU-145; DU-145, Log10 Concentration −0.9): 99%
- Percent Growth (DU-145; DU-145, Log10 Concentration −1.9): 101%
- Growth Percent (DU-145; DU-145, one dose): 39.22%
- GI50 (DU-145; DU-145, in µg/mL): 2.76E1
- TGI (A549/ATCC): >1.25E2
- Percent Growth (A549/ATCC; Log10 Concentration 0.1): 94%
- Percent Growth (A549/ATCC; Log10 Concentration 1.1): 51%
- Percent Growth (A549/ATCC; Log10 Concentration 2.1): 8%
- Percent Growth (A549/ATCC; Log10 Concentration −0.9): 99%
- Percent Growth (A549/ATCC; Log10 Concentration −1.9): 102%
- GI50 (A549/ATCC; in µg/mL): 1.31E1
- Growth Percent (A549/ATCC; one dose): 44.29%
- TGI (SF-268; SF-268): >1.25E2
- Percent Growth (SF-268; SF-268, Log10 Concentration 0.1): 108%
- Percent Growth (SF-268; SF-268, Log10 Concentration 1.1): 52%
- Percent Growth (SF-268; SF-268, Log10 Concentration 2.1): 4%
- Percent Growth (SF-268; SF-268, Log10 Concentration −0.9): 101%
- Percent Growth (SF-268; SF-268, Log10 Concentration −1.9): 95%
- Growth Percent (SF-268; SF-268, one dose): 39.72%
- GI50 (SF-268; SF-268, in µg/mL): 2.02E1
- TGI (NCI-H226; NCI-H226): >1.25E2
- Percent Growth (NCI-H226; NCI-H226, Log10 Concentration 0.1): 101%
- Percent Growth (NCI-H226; NCI-H226, Log10 Concentration 1.1): 65%
- Percent Growth (NCI-H226; NCI-H226, Log10 Concentration 2.1): 23%
- Percent Growth (NCI-H226; NCI-H226, Log10 Concentration −0.9): 99%
- Percent Growth (NCI-H226; NCI-H226, Log10 Concentration −1.9): 100%
- Growth Percent (NCI-H226; NCI-H226, one dose): 83.77%
- GI50 (NCI-H226; NCI-H226, in µg/mL): 2.90E1
- A549 cell migration to the denuded zone (A549 cells; GMI 2-8 μg/ml): dose-dependently suppresses A549 cell migration
- EGF-induced migration / wound closure activity (A549 cells; co-treated with EGF): markedly decreased wound closure activity
- TGI (RPMI-8226; RPMI-8226): >1.25E2
- Percent Growth (RPMI-8226; RPMI-8226, Log10 Concentration 0.1): 105%
- Percent Growth (RPMI-8226; RPMI-8226, Log10 Concentration 1.1): 100%
- Percent Growth (RPMI-8226; RPMI-8226, Log10 Concentration 2.1): 72%
- Percent Growth (RPMI-8226; RPMI-8226, Log10 Concentration −0.9): 102%
- Percent Growth (RPMI-8226; RPMI-8226, Log10 Concentration −1.9): 105%
- Growth Percent (RPMI-8226; RPMI-8226, one dose): 96.01%
- TGI (SNB-75; SNB-75): 1.45E1
- Percent Growth (SNB-75; SNB-75, Log10 Concentration 0.1): 97%
- Percent Growth (SNB-75; SNB-75, Log10 Concentration 1.1): 5%
- Percent Growth (SNB-75; SNB-75, Log10 Concentration 2.1): −68%
- Percent Growth (SNB-75; SNB-75, Log10 Concentration −0.9): 101%
- Percent Growth (SNB-75; SNB-75, Log10 Concentration −1.9): 95%
- Growth Percent (SNB-75; SNB-75, one dose): −45.73%
- GI50 (SNB-75; SNB-75, in µg/mL): 4.04E0
- LC50 (SNB-75; SNB-75, in µg/mL): 7.14E1
- TGI (HS 578T): >1.25E2
- Percent Growth (HS 578T; Log10 Concentration 0.1): 108%
- Percent Growth (HS 578T; Log10 Concentration 1.1): 96%
- Percent Growth (HS 578T; Log10 Concentration 2.1): 64%
- Percent Growth (HS 578T; Log10 Concentration −0.9): 106%
- Percent Growth (HS 578T; Log10 Concentration −1.9): 104%
- TGI (TK-10; TK-10): 4.91E0
- Percent Growth (TK-10; TK-10, Log10 Concentration 0.1): 106%
- Percent Growth (TK-10; TK-10, Log10 Concentration 1.1): −72%
- Percent Growth (TK-10; TK-10, Log10 Concentration 2.1): −100%
- Percent Growth (TK-10; TK-10, Log10 Concentration −0.9): 98%
- Percent Growth (TK-10; TK-10, Log10 Concentration −1.9): 96%
- Growth Percent (TK-10; TK-10, one dose): −92.37%
- GI50 (TK-10; TK-10, in µg/mL): 2.57E0
- LC50 (TK-10; TK-10, in µg/mL): 9.38E0
- TGI (OVCAR-5; OVCAR-5): >1.25E2
- Percent Growth (OVCAR-5; OVCAR-5, Log10 Concentration 0.1): 98%
- Percent Growth (OVCAR-5; OVCAR-5, Log10 Concentration 1.1): 89%
- Percent Growth (OVCAR-5; OVCAR-5, Log10 Concentration 2.1): 66%
- Percent Growth (OVCAR-5; OVCAR-5, Log10 Concentration −0.9): 100%
- Percent Growth (OVCAR-5; OVCAR-5, Log10 Concentration −1.9): 101%
- Growth Percent (OVCAR-5; OVCAR-5, one dose): 107.85%
- TGI (PC-3; PC-3): 3.87E1
- Percent Growth (PC-3; PC-3, Log10 Concentration 0.1): 98%
- Percent Growth (PC-3; PC-3, Log10 Concentration 1.1): 73%
- Percent Growth (PC-3; PC-3, Log10 Concentration 2.1): −76%
- Percent Growth (PC-3; PC-3, Log10 Concentration −0.9): 102%
- Percent Growth (PC-3; PC-3, Log10 Concentration −1.9): 104%
- Growth Percent (PC-3; PC-3, one dose): 79.73%
- GI50 (PC-3; PC-3, in µg/mL): 1.79E1
- LC50 (PC-3; PC-3, in µg/mL): 8.34E1
